From article PMC4891089, “The transcription factor GATA1 and the histone methyltransferase SET7 interact to promote VEGF-mediated angiogenesis and tumor growth and predict clinical outcome of breast cancer” (Oncotarget, 2016) come the findings set out here.

The target of this assay is T1, His-tagged GATA1 (UniProt P15976 1-413).
T1 construct: GATA1; also called purified His-tagged GATA1 protein; source: His fusion from pET-28a, expressed and purified according to the manufacturers' instructions (Qiagen)
Nature of the assay: pull-down; GST pull-down: purified His fusion protein incubated with GST fusion protein bound to GST beads for 4 h at 4°C; immunoblot. Conditions: both partners purified. In general terms: In western blotting, separated proteins are transferred to a membrane and probed.

T1 sequence (P15976 whole entry, the tested form may be a part): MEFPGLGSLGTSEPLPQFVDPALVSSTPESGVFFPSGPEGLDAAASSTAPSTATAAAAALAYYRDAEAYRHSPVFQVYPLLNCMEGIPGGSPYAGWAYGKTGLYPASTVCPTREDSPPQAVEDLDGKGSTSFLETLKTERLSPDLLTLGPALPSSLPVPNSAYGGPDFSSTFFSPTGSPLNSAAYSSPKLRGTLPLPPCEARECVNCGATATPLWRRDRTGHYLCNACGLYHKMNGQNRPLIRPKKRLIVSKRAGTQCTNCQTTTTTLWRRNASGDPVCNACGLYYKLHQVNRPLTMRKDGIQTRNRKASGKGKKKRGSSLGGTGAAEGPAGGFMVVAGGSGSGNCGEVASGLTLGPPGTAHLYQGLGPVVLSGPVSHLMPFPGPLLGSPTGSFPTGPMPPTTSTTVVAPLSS

B1: GST-SET7 (enzyme, UniProt Q8WTS6 1-366, looked up)
chain: MDSDDEMVEEAVEGHLDDDGLPHGFCTVTYSSTDRFEGNFVHGEKNGRGKFFFFDGSTLEGYYVDDALQGQGVYTYEDGGVLQGTYVDGELNGPAQEYDTDGRLIFKGQYKDNIRHGVCWIYYPDGGSLVGEVNEDGEMTGEKIAYVYPDERTALYGKFIDGEMIEGKLATLMSTEEGRPHFELMPGNSVYHFDKSTSSCISTNALLPDPYESERVYVAESLISSAGEGLFSKVAVGPNTVMSFYNGVRITHQEVDSRDWALNGNTLSLDEETVIDVPEPYNHVSKYCASLGHKANHSFTPNCIYDMFVHPRFGPIKCIRTLRAVEADEELTVAYGYDHSPPGKSGPEAPEWYQVELKAFQATQQK
notes: SET7 (SETD7); also called purified GST-SET7; source: GST fusion from pGEX-KG, expressed and purified according to the manufacturers' instructions (Amersham Pharmacia)
B1: the binding result was “binds”.
